Test results from patent US20240166738A1 (priority 2021, published 2024).

Target: GST-TMEM106B (truncated, comprising amino acids 122-210 of SEQ ID NO:1) (Homo sapiens, UniProt Q9NUM4)
Test: Pre-mix epitope binning of anti-TMEM106B antibodies (Carterra / Lake Pharma)
Type: binding
Parameters: key to epitope bin: Bin 1: competes for binding to the same or overlapping TMEM106B region as the TM1, TM17, TM22, TM26, TM79, and/or TM82 antibodies; Bin 2: competes for binding to the same or overlapping TMEM106B region as the TM3, TM9, TM10, TM11, TM12, TM13, TM18, TM19, TM21, TM24, TM25, TM32, TM35, TM37, TM42, TM45, TM48, TM54, TM59, TM60, TM61, and/or TM76 antibodies; Bin 3: competes for binding to the same or overlapping TMEM106B region as the TM7, TM15, TM83, and/or TM84 antibodies; Bin 4: competes for binding to the same or overlapping TMEM106B region as the TMS, TM28, TM29, TM30, TM63, TM64, TM72, TM78, TM80, TM86, and/or TM88 antibodies; Bin 5: does not bind to a truncated TMEM106B comprising amino acids 122-210 of SEQ ID NO:1

GST-TMEM106B (truncated, comprising amino acids 122-210 of SEQ ID NO:1), sequence (Q9NUM4 122-210): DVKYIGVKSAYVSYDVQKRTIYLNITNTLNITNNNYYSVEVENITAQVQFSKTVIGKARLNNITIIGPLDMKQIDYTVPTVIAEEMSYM

B1: TM-80: anti-TMEM106B monoclonal antibody; VH SEQ ID NO: 485, VL SEQ ID NO: 520 (antibody, V domains shown)
VH: QVQLQQPGAELVKPGASVKLSCKASGYTFTTFWMHWVKQRPGQGLEWIGNIDPSDSETHYNQEFKDKATLTVDRSSNTAYMQLSSLTSEDSAVYYCARSSNWDNFDYWGQGTAVTVSS
VL: DIVMTQAAPSVPVTPGESVSISCRSSQSLLHVNGHTYLYWFLQRPGQSPQLLIYRMSNLASGVPDRFSGSGSGTVFTLRISRVETEDVGIYYCMQHLQYPFTFGSGTKLEIK
modifications: Variable Heavy Chain -- TM-80; Variable Light Chain -- TM-80
B1 was tested, and the epitope bin (competition for binding to truncated GST-TMEM106B (amino acids 122-210)) was “Bin 4” and the “Binding Community/Bin” value (epitope bin number, pre-mix binning on truncated GST-TMEM106B) was 4.
